# Reference: the supplement of paper PMC12042874
# ± gives the uncertainty stated by the source.
# Assay: amyloid nucleation score (Sup35N fusion, yeast selection) (log enrichment); library NNK2; higher = more nucleation; inactive = no reads after selection
# In short: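 Three technical output replicates were used for random libraries. Psi-negative yeast expressing peptides of 20 random codons fused to Sup35N were induced with 100 μM copper sulfate for 24 hours and grown 7 days at 30°C on medium lacking adenine and uracil, and input and output plasmid inserts were Illumina-sequenced, excluding sequences with under 100 input reads. The nucleation score is the DiMSum log enrichment of output over input reads, centred on the mode score of non-aggregating sequences.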
row,Substance,amyloid nucleation score
1,HRGNTCTGSRCRLADRRHPS,1.79 ± 0.18
2,LDILIAQALEVFSDQYCNY,-0.992 ± 0.42
3,LFAIGEVTAYSGRLFSFYTQ,1.79 ± 0.26
4,VFCGFDIVFCKRAFGSKIYL,-0.632 ± 1.1
5,YCQSIVFCSI,3.84 ± 0.086
6,SYPAKDRNLYDCYLCPVSYL,-1.16 ± 0.61
7,SPSHGVRNP,1.51 ± 0.34
8,TELVWLPWTRFCFGRNYRG,0.101 ± 0.35
9,GFHLQMEEVASYFLEIRPFC,0.02 ± 0.79
10,ARPVDMHTQTYALL,-0.284 ± 1.1
11,SFNYP,inactive
12,LILLNFTADSRGRRMLCCAW,-0.584 ± 0.76
13,AVINPPKHVVCCFD,-0.189 ± 0.23
14,MKLFISNHTLWSIGKGDGVT,inactive
15,VSCLTAPILSMENPSEEYVG,1.55 ± 0.35
16,IFSQGHEYKRDELKNV,inactive
17,DMFRWNSYCSIVMLYCYAYD,4.62 ± 0.063
18,GMGVYYVSSFSLRLWNGMTV,1.65 ± 0.13
19,VLSEYGDTNYKIQGRATCGK,0.928 ± 0.6
20,FYGAKMSIHSYC,inactive
21,YLNWCSSSRNYLSMLYWPMV,-0.148 ± 0.5
22,SHPDRTIDSGFDTMRDAIWT,0.22 ± 0.63

row,Substance,amyloid nucleation score
1,PCGSCPRLQQIVSRDGDDAG,2.71 ± 0.21
2,VNAVSKGTCLLIWFRDFVAY,-0.113 ± 1.1
3,IVGAIRSKILGTGQTRVIWG,0.477 ± 0.65
4,VTGYGSLYYGVKTRG,-0.295 ± 0.55
5,TIIRRDSLESQRRHCPMVVV,0.351 ± 0.64
6,HDPRIYW,0.441 ± 0.27
7,AQNKNWQSFRMFPVVLAMVG,0.178 ± 0.77
8,NTFDVVMT,0.411 ± 0.51
9,QVSYNLCNR,inactive
10,DVMYFGASLGTFVGVIADWE,inactive
11,CSLLVTLWE,0.554 ± 0.23
12,WDIRVVVSVRCNMQVYLFVC,0.581 ± 0.51
13,SDYYVFTDVFVGGYNLDE,-1.04 ± 1
14,IEYWRSGVMELGHVVSYRDI,0.102 ± 0.77
15,RFFNPNMLKFALSGQ,-1.37 ± 0.44
16,ASAPEYHQVKIYIFQFTPRA,2.02 ± 0.094
17,YNYLAMPQMLMEYFISVVVS,2.05 ± 0.089
18,CNGYRKVHCLMTMSRWTYGR,1.08 ± 0.1
19,RFYCRRT,0.199 ± 0.33
20,YQRNSFNDHADYPYHELVKS,0.222 ± 0.64
21,YGSQISLTKEARQEKDTSGS,-0.815 ± 0.34
22,IILAKLSLLTICCSIDWISR,3.07 ± 0.11

row,Substance,amyloid nucleation score
1,DSLMQVNWN,1.01 ± 0.36
2,FAFMITPCMLTSRMFSYGHA,-0.18 ± 0.36
3,PGIVRGPYYGNMVIFLLKMF,2.89 ± 0.19
4,VNSSFLLGFCLRIMNHV,inactive
5,YRPMEGRLKWSMTVLIVSLY,0.497 ± 0.46
6,YDPDFSGYCYFAIILYIIFS,-1.5 ± 0.62
7,VLFNYKLITGSMFCTRHTRP,2.08 ± 0.11
8,FPCSVRVTLTYLFMYEPVRP,0.076 ± 0.2
9,ISTFSRVHLSKVYLRDSTIV,-1.92 ± 1.1
10,WSSERWPEWIG,0.027 ± 0.24
11,VLPRYN,0.471 ± 0.62
12,DENFHAEGWRCFVYPFY,-0.373 ± 0.27
13,YGLALFTRI,-0.347 ± 0.44
14,VCLMLS,-0.573 ± 1.1
15,DPYYLKGYCVWEEYSWCPS,-0.749 ± 0.55
16,FEYPLCKTFEIRKPVFRVWV,-0.089 ± 0.79
17,RPDQTRF,-0.022 ± 0.5
18,DAGDVRQVKEAGLMAGS,0.527 ± 0.21
19,GGSRTRSCQDRAHCSVGGM,0.598 ± 0.39
20,CPLPIVSFKTLINLNMMYKS,-0.269 ± 0.43
21,FVTFFLSSHWVIVLDAYSLN,-0.61 ± 1.1
22,SKRVDIKHSMRARDGLNRFW,-0.226 ± 1.1

row,Substance,amyloid nucleation score
1,SLSRFCMNLCRFSGGIQSVR,-1.34 ± 0.42
2,YVTPSNLARNKIQRFMASLI,0.436 ± 0.8
3,LELWFGDWNRVMYSCSVDWG,-0.096 ± 0.5
4,LVRPFWTLRYKTYHRSPVGR,1.59 ± 0.15
5,NRWKHYTDGSTL,-0.02 ± 0.39
6,GHVAWSNDSWERESFF,-0.989 ± 0.76
7,WFACSLVAYRVLSSGTKAVM,0.204 ± 0.34
8,EFRTAFLVI,0.138 ± 1.1
9,MGAAITSGEGYDLRLLIDNS,0.208 ± 1.1
10,SGAYSDGWYRQHFMVQL,inactive
11,YYSAHAKSAGLM,1.2 ± 0.48
12,RFQFSICHYYDLNFS,0.594 ± 0.66
13,CLFWG,2.85 ± 0.11
14,WAWIHSADLNYNCVMRGCLP,2.16 ± 0.14
15,SNALQDGRVQLGSFEHRIVR,0.649 ± 0.5
16,FPVYRI,inactive
17,LYNYSSFLNTVGVGYEIFMR,-0.105 ± 1.1
18,RMSEYFDGLHRWFSGCWCAL,0.256 ± 0.65
19,KMGLRRFNFCARFEYRTSVA,-0.048 ± 0.25
20,YGVEAECLEKNAALLCYNID,inactive
